Results on 41 sequences are retold here after the nanobody polyreactivity screen of Harvey et al. (2022).

This data set can be described thus: yeast display, Sf9 membrane polyspecificity reagent, FACS + sequencing; frameworks hold sequencing errors. The method, boiled down: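 Sorting gates, low and high (top ~1%), were placed on anti-HA fluorescence to track expression and on streptavidin fluorescence to track reagent binding. A clone's polyreactivity label is taken from the gate it came out of. The reagent was 10% biotinylated, detergent-solubilized Sf9 membrane, applied for 1 hour at 4 °C to galactose-induced yeast display cells.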
Take “QVQLVESGGGLVQAGGILRLSCAASGRIFQPYAMGWYRQAPGKERELVAAISRGGTTYYADSVKGRFTISRDNAKNTVYLQMNSLKTEDTAVYYCAAPSYYRYDYWGQGTQVTVSS”: the “polyreactivity (PSR sort gate)” value is on record as “high polyreactivity”.
With “QVQLVESGGGLVQAGGRLRLSCPASGRTFRGYARGWYRQAPRKERELLAAITSGGSTNYADSVKGRFTISRDNAKNTVYLQKKSLKPEDTAVYYCAADSWFYGGEYKLGYYWGQGTQVSVSS”, the “polyreactivity (PSR sort gate)” value was “low polyreactivity”.
In the case of “QVQLVESGGGLVQAGGSLRLSCAASGSILGHYAMGWYRQAPGKERELVAAISWSGGSTYYADSVKGRFTISRDNAKNTVYLQMNSLKPEDTAVYYCNAAAILYTSAGSLYWYDYWGQGTQVTVSS”, the “polyreactivity (PSR sort gate)” value is “low polyreactivity”.
Next, “QVQLVESGGGLVQAGGSLRLSCAASGSTLWYNAMGWYRQAPGKERELVATITAGGGSTYYADSVKGRFTISRDNAKNTVYLQMNSLKPEDTAVYYCATPVASVTGYDYWGQGTQVTVSS”: “low polyreactivity”; “QVQLVESGGGLVQAGGSLLLSCAASGGTFGGYTMGWYRQAPVKERELVAAITRSGSSTFYADSVKGRFTISRDNAKNTVYLQMNSLKPEDTAVYYCAALWHAVFYADYDYWGQGTQVSVSS”: “high polyreactivity”.
Next, “QFQLVESGGGLVQAGGSLRLSCADSGSTFFNNAMGWYRHAPGKERELVAAITSSGGSTYYADSVKGRFSISRDNAKNTVYLQMNSLKPEDTAVYYCNKKSALYRRYDYWGQGTQVTVSS”: “low polyreactivity”.
As to “QVQLLESAGGLVQAGGSLRLSCAASGTIGYNGWYRQAPGKERELVAAISTRDGSTYYADSVKGRFTISRDNAMNTGYLQINSLKPEDTAVYYCAARYPSDYDYWGQGTQVTVSS”, the “polyreactivity (PSR sort gate)” value is given as “low polyreactivity”.
Take “QVQLVESGGGLVQAGGSLRLSCAASGFTIRYYTMGWYRQAPGKERELVAAITWSGGRTYYADSVKGRFTISRDNAKNTVYLQMNSLKPDETAVYYCAADVTKRASRDYYWGQGTQVTVSS”: the “polyreactivity (PSR sort gate)” value was “high polyreactivity”.
For “QFQLVESGGGLVQAGGSLSLSCAASGSTFVWYAMGWYRPAPGKERELVAAINFGGTTYYADSVKGRFTISRDNAKNTVYLQMNSLKPEDNAVYYCATEYDYGYWYPDGWVIFDYWVQGTQVTVSS”, the “polyreactivity (PSR sort gate)” value is reported as “low polyreactivity”.
Next, “QVQLVESGGGLVQAGGSLRLSCAASGRTFGRYAMGGYRQAPGKERELVAAINSGGSTYYADSVKGRFTISRDNAKNTVYLQMNSLKPEDTAVYYCAADWYYWGFIFDYWGQGTQVTVSS”: “high polyreactivity”.
Next, “QVQLVESGGGLVQAGGSLRLSCAASGRTSRVNAMGWYRQAPGKERELVATITKSGGSTFYADSVKGRFTISRDNAKNTVYLQMNILKPEDTAVYYCNAGGVRATKGYDYWGQGTQVTVSS”: “low polyreactivity”; “QVQLVESGGGLVQAGGSLRLSCAPSGSIFDFNTMGWYRQAPGKERELVAAISQRTGRTYYADSVKGRFTISRDNAKNTVYLQMNSLKPEDTAVYYCARTDRRLGAHQGDYWGQGTQVTVSS”: “high polyreactivity”; “QDQLVESGGGLVQAGVSLRLSCAASGSTFAYITMGRYRQAPGKERELVAAISWRGTRTYYADSVKGRFTISRDNAKNNVYLQMNSLKPEDTAVYYCATKDGISYDYWVQGTQVTVSS”: “high polyreactivity”.
For “QVQLVESGGGLVQAGGSLRLSCAASGRIFDLNAMGWYRQAPGKERELVAVITGSGGSTYYADSVKGRFTISRDNAKNTVYLQMNSLKPEDTAVYYCNAYTQQYRSYGYWGQGTQVTVSS”, the “polyreactivity (PSR sort gate)” value was “low polyreactivity”.
Next, “QVQHVESGGGLVQAGGSLRLSCAASGRTFVNNAMGWYRQQPGKERELVAAITGSGGSTYYADSVKGRFTISRDNAKNTVYLLMNSLKPEDTAVYYCAKRLVGSRYLFDYWGQGTQVTVSS”: “low polyreactivity”; “QVQLVESGGGLVQAGGSLRLSCAASGLTFISYDMGWYRQAPGKERELVAAISSGGVLPNYADSVKGRFTISRDNAKNTVYLQMNSLKPEDTAVYYCNADTPTWPLDYWGQGTQVTVSS”: “low polyreactivity”.
Next, “QVQLVESGVGLVQAGGSLRLSCAASGCIFIKYAMGWSRQAPGKERELVASITISSGRTYYADSVKGRFTISRDNAKNTVYLQMISLKPEDTAVYYCAAVSLWYSAYEYWGQGTQVTVSS”: “high polyreactivity”; “QVQLVESGGCLVQAGGSLRLSCAASGSIFSRNVMGWYRKAPGKERELVAAITGSGGRTYYADSVKGRFTISRDNAKNTVYLQMNSLKPEDTAVYYCAKSRPGTYDYWGPGTQVTVSS”: “high polyreactivity”; “QVQLVESGGCLVQAGGSLRLSCAASGYTFYVYAMGWYRQAAGKVRELVSAISGGSNTYYADSVKGRFTISRDNAKNTVYLQMNSLKPEDTALYYCAKSSTTYRQRARYDYWGHGTQVTVSS”: “high polyreactivity”.
The value for “QVQLGESGGGLVQAGGSLRLSCAASGRIFPWNTMGWYRQAPGKERELVAGITSGGSTNYADSVKGRFTISRDNAKNTVYLLMNCLKPEATAVYYCAARGYYWYISGVYEYEYWGQGTQVTLSS” was “low polyreactivity”.
“QVQLVESGGGLVQAGGSLRLSCAASGFTFTRYAMGWYRQAPGKERELVAAISSRGGSTNYADSVKGRFTISRDNAKNTVYLQMNSLKPEDTAVYYCAAEYYRLRYEYDYWGQGTQVTVSS”: the “polyreactivity (PSR sort gate)” value was “high polyreactivity”.
The value for “QVQLVESGGGLVQAGGSLRLSCAASGSILYISARGWYRQAPGKERELVASINSGASTNYADSVKGRFTISRDNAKNTVYLQMNSLKPEDTAVYYCAKSIVNPPHGFKDFDYWGQGTQVTLSS” was “low polyreactivity”; that for “QVQLVESGGGLVQAGGSLRLSCAASGRTFPYYAMGWYRQAPGKERELVARIRSDGSTNYADSVKGRFTISRDNAKNTVYLQINSLKPDDTAVYDCAAKPYPSLFFHYGYWGQGTQVTVSS” was “low polyreactivity”.
Next, “QVQLVESGGGLVQAGGSLRLSCAASGFNFSYYVMGWSRQAPGKERELVAAITKSGGSTYYADSVKGRFTISRDNAKNTVYLQMNSLKPEDTAVYYCAAVRGYRGYDYWGQGTQVTVSS”: “high polyreactivity”; “QVQLVESAGGLVQAGGRLRVSCAASGFTFTLYAMGWYRQEPGKERELVAAINRSGGRTYYADSVKGRFTISRDNAKNTVYLQKNSLKPEDTAVYYCNKYPWPNYYDGEYDYWGQGTQVTVSS”: “high polyreactivity”.
Next, “QVQLVESGGGLVQAGGSLRLSCAASGYTFWQYAMGWYRQAPGKERELVATITSRGGSTYYADSVKGRFTISRDNAKNTVYLQMNSLKPEDSAVYYCNARRRYSTRRSDYWGQGTQVTVSS”: “high polyreactivity”; “QVQLVESGGGLVQAGGSLRLSCADSGFTFATYAMGWYRQAPGKKGRLVAAISNAGSTKYADSVKGRFTISRDNAKNTFYLQLNSLKPEDTAVYYCAASTLYASYYYLYYYWGQGTQVTVSS”: “high polyreactivity”.
Take “QVQLVESGGGLVQAGGSLRLSCAASGSTFQGYAMGWYRQAPGKERELVSAISGSGGNTYYADSVKGRFTISRDNAKNTVYLQMNSLKPEVTAVYSCAAGHVRTDWRYGYWGQGTQVTVSS”: the “polyreactivity (PSR sort gate)” value is recorded as “low polyreactivity”.
“QVQLVETGGGLVQAGGSLRLSCAASGFTFGANVMGWYRPAPGKESELVAGITRSGDSTYYADSVKGRFTISRDNAKNTVYLQMNILKPEDTAVYYCAADVYDGEYILDYDYWGQGTQVTVSS”: the “polyreactivity (PSR sort gate)” value was “low polyreactivity”.
As for “QVQLVESGGGLVQASGSLRLSCAASVRIFFVNAMGWYRQEHGKERELVAAIPSSGGSTYYADSVKGRFTISRDNAKNTVYLQMNSLKPEDTAVYYCNARSWYPYDYWGQGTQVTVSS”, the “polyreactivity (PSR sort gate)” value was “low polyreactivity”.
The value for “QVQLVESGGGLVQAGGSLRLSCAASGRTFEYYAMGWYRPAPGKERELVAAITWSVGSTYYADSVKGRFTISRDNAKNTVYLQMNSLKPEDTAGYYCAVDVVYTWPFPVEYYYWGQGTQVTVSS” was “high polyreactivity”.
Take “QVQLVESVGGLVQAGGSLRLSCAASGRTFGRYAMGWDRQAPGKERELVAAISWSGATTYYADSVKGRFTISRDNAKNTVYLQMNSLKPEDTAVYYCAARFRRGITYEYWGQGTQVTVSS”: the “polyreactivity (PSR sort gate)” value is “high polyreactivity”.
As for “QVQLVESGGGLVQAGGSLRLSCAASGGIYYYAMGWYRPAPGKERELVSAISSGGGNTNYADSVKGRFTISRDNAKNTVYLQMISLKPEDTAVYYCYADRAVVLSTTVWGEYDYWGQGTQVNVSS”, the “polyreactivity (PSR sort gate)” value is “low polyreactivity”.
The value for “QGQLVESGGGLVQAGGSLRLSCAATGFTFRYYAMGWYRHAPGKERELVATITRGGSTNYADSVKGRFTISRDNAKNTVYLQMNSLKPEDTAVYYCATGKNYWRGYEYWGQGTQVTVSS” was “low polyreactivity”; that for “QVQLVESGGGLVQAGGSLRLSCAASGSIFALYAMGWYRQAPGKERELVAAISYRGGRTYYADSVKGRFTISRDNAKNTVYLQMNSLKPEDTAVYFCATDFPGKFDYWGQGTQVTVSS” was “low polyreactivity”.
For “QVQLVESGGGLVQAGGSLRLSCAASGYIYQRNAMGWYRQAPGKERELVARINYRGGSFYADSVKGRCTISRDNAKNTGYLQMNSLKPEDTAVYYCAARTSGDMYSWGQGTQVTVSS”, the “polyreactivity (PSR sort gate)” value is “high polyreactivity”.
Next, “QVQLVESGGGLVQAGGSLRLSCAASGSTFVGYAMGWYRQAPGKEMEFVAAITRGGSTNYADSVKGRFTISRDNAKNTVYLQMNSLKPEDTAVYYCAARDRREGFIFDYWGQGTQVTVSS”: “low polyreactivity”; “QVQLVESGGGLVQAGGSLRLSCAASGYIFAWYAMGWYRQAPGIVRELVAAISRSGGSTYYADSVKGRFTISRDNAKHTDYLQMNSLKPEDTAVYYCNAYSAYDEYDYWGQGTQVTVSS”: “high polyreactivity”.
The value for “QVQLVESGGGLVQAGGSLRLSCAASGSIFGLYAMGWYRQAPGKERELVAAINWNGGDTYYADSVKGRFTISRDYAKNTVYLQMNSLKPEDTAVYYCAAEQYRYGIRRRHYDYWGQGTEVTVSS” was “low polyreactivity”.
Next, “QVQLVESGGGLVQAGGSLRLSCAASGSIFDPYGMGWYRQAPGKERELVAAISSSDGSTYYADSVKGRFTISRDNAKNTVYLQMNSLKPEDTAVYFCAAETYGTNSSNTVYRWKYDYWGQGTQVTVSS”: “low polyreactivity”; “QVQLVESGGGLVQAGGILRLSCAASGSIVVGYAMGWYRPAPGKERELVGAITGSGTRTDYADSVKGRFTISRDNAKNPVYLHMNSLKPEDTAVYNCAAPMSYKNVKYDYWGQGTQVTVSS”: “low polyreactivity”.
